This passage reports Kd, koff and kon results from US20200062832A1 (QUIDEL, published 2020).

In test [1] the target is T1, recombinant DbpA full length protein (without signal sequence), Borrelia burgdorferi decorin-binding protein A (Borrelia burgdorferi, UniProt O50917 30-191).
T1 construct: also called DpbA; DbpA antigen
T1 sequence: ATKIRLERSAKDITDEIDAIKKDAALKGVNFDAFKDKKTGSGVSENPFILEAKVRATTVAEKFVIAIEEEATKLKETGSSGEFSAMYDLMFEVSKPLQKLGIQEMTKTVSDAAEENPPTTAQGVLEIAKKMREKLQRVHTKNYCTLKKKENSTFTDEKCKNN
Nature of the test: Octet BLI, DbpA 100 nM (summary table). In general terms: BLI is a label-free optical method that tracks binding on a fibre tip over time.

In test [2] the target is T1, recombinant DbpA full length protein …. Nature of the test: Octet BLI, mAb on anti-mIgG Fc sensor, DbpA 100 nM.
For test [3] the target is unchanged. Nature of the test: Biacore SPR (summary table). (In general: Surface plasmon resonance follows binding to a sensor surface in real time, without labels.)
Test [4] shares this target. The test can be described thus: Biacore SPR, supernatant over DbpA chip.
The target is the same in test [5]. The test can be described thus: Biacore SPR, DbpA on CM5 chip.

As a reminder, the Kd is the free concentration of one partner at which half of the binding sites on the other are occupied at equilibrium, for simple one-to-one binding. Broadly, the koff is the first-order rate constant of dissociation. One may read the kon as the second-order rate constant of association.

B1: MAb 6G8 (mouse hybridoma monoclonal antibody) (antibody)
heavy: QVQLQQPGAELVKPGASVKLSCKASGYTFTRYWMYWVKQRPGRGLEWIGRLDPNSGVTKYNEKFKSKATLTVDKSSSTAYMQLSSLTSEDSAVYYCVRDDSWYFDVWGTGTTVTVSSAKTTPPSVYPLAPGSAAQTNSMVTLGCLVKGYFPEPVTVTWNSGSLSSGVHTFPAVLQSDLYTLSSSVTVPSSTWPSQTVTCNVAHPASSTKVDKKIVPRDCGCKPCICTVPEVSSVFIFPPKPKDVLTITLTPKVTCVVVDISKDDPEVQFSWFVDDVEVHTAQTKPREEQINSTFRSVSELPIMHQDWLNGKEFKCRVNSAAFPAPIEKTISKTKGRPKAPQVYTIPPPKEQMAKDKVSLTCMITNFFPEDITVEWQWNGQPAENYKNTQPIMDTDGSYFVYSKLNVQKSNWEAGNTFTCSVLHEGLHNHHTEKSLSLSPGK
light: EIQMTQSPSSMSASLGDRITITCQATQDIVKNLNWYQQKPGKPPSFLIYYATELAEGVPSRFSGSGSGSDYSLTINNLESQDFADYFCLQFYAFPLTFGAGTKLELRRADAAPTVSIFPPSSEQLTSGGASVVCFLNNFYPRDINVKWKIDGSERQNGVLNSWTDQDSKDSTYSMSSTLTLTKDEYERHNSYTCEATHKTSTSPIVKSFNRGEC
notes: Mouse IgG1 kappa, tested as hybridoma culture supernatant; copies: 2 + 2
With B1, the Kd in test [1] turned out to be 976 pM; in test [2], 976 pM; in test [3], 0.25 pM; in test [4], 0.25 pM. Also, the koff in test [1] is 0.000977 s⁻¹; in test [2] it was 0.000977 s⁻¹; in test [4] it was 5e-08 s⁻¹. For the same molecule, the kon came out at 1e+06 M⁻¹ s⁻¹ in test [1], 1e+06 M⁻¹ s⁻¹ in test [2] and 200000 M⁻¹ s⁻¹ in test [4].

B2: 6G8 chimeric IgM (antibody)
heavy: QVQLQQPGAELVKPGASVKLSCKASGYTFTRYWMYWVKQRPGRGLEWIGRLDPNSGVTKYNEKFKSKATLTVDKSSSTAYMQLSSLTSEDSAVYYCVRDDSWYFDVWGTGTTVTVSSAKTTPPSVYPLAPGSAAQTNSMVTLGCLVKGYFPEPVTVTWNSGSLSSGVHTFPAVLQSDLYTLSSSVTVPSSTWPSQTVTCNVAHPASSTKVDKKILPVIAELPPKVSVFVPPRDGFFGNPRKSKLICQATGFSPRQIQVSWLREGKQVGSGVTTDQVQAEAKESGPTTYKVTSTLTIKESDWLSQSMFTCRVDHRGLTFQQNASSMCVPDQDTAIRVFAIPPSFASIFLTKSTKLTCLVTDLTTYDSVTISWTRQNGEAVKTHTNISESHPNATFSAVGEASICEDDWNSGERFTCTVTHTDLPSPLKQTISRPKGVALHRPDVYLLPPAREQLNLRESATITCLVTGFSPADVFVQWMQRGQPLSPEKYVTSAPMPEPQAPGRYFAHSILTVSEEEWNTGETYTCVVAHEALPNRVTERTVDKSTGKPTLYNVSLVMSDTAGTCY
light: EIQMTQSPSSMSASLGDRITITCQATQDIVKNLNWYQQKPGKPPSFLIYYATELAEGVPSRFSGSGSGSDYSLTINNLESQDFADYFCLQFYAFPLTFGAGTKLELRRADAAPTVSIFPPSSEQLTSGGASVVCFLNNFYPRDINVKWKIDGSERQNGVLNSWTDQDSKDSTYSMSSTLTLTKDEYERHNSYTCEATHKTSTSPIVKSFNRGEC
notes: Heavy chain is mouse VH-CH1 plus human IgM mu chain CH2-4; also called 6G8 chimera; 6G8 (26394.1.a)
Consider B2, for which, in test [5], the Kd is 1.96 pM, the koff amounted to 2.45e-05 s⁻¹ and the kon turned out to be 1.25e+07 M⁻¹ s⁻¹.

B3: MAb 8C10 (mouse hybridoma monoclonal antibody) (antibody)
heavy: QVQLQQSGAELMKPGASVKLSCKAAGYTFTDYWIEWVKQRPGHGLEWIGEILPGSGSTKDNERFKGKATFTADTSSNTAYMQLSSLTTEDSAIYYCARREWGYYFDYWGQGTTLTVSSAKTTPPSVYPLAPGSAAQTNSMVTLGCLVKGYFPEPVTVTWNSGSLSSGVHTFPAVLQSDLYTLSSSVTVPSSTWPSQTVTCNVAHPASSTKVDKKIVPRDCGCKPCICTVPEVSSVFIFPPKPKDVLTITLTPKVTCVVVDISKDDPEVQFSWFVDDVEVHTAQTKPREEQINSTFRSVSELPIMHQDWLNGKEFKCRVNSAAFPAPIEKTISKTKGRPKAPQVYTIPPPKEQMAKDKVSLTCMITNFFPEDITVEWQWNGQPAENYKNTQPIMDTDGSYFVYSKLNVQKSNWEAGNTFTCSVLHEGLHNHHTEKSLSLSPGK
light: DIVMTQSHKFMSTSVGDRVSITCKASQDVSTAVAWYQQKPGQSPKLLIYWASTRHTGVPDRFTGSGSGTDYTLTISSVQAEDLALYYCQQHYSTPYTFGGGTKLEIKRADAAPTVSIFPPSSEQLTSGGASVVCFLNNFYPRDINVKWKIDGSERQNGVLNSWTDQDSKDSTYSMSSTLTLTKDEYERHNSYTCEATHKTSTSPIVKSFNRGEC
notes: Mouse IgG (gamma/kappa), tested as hybridoma culture supernatant; Signal peptides are positions 1-19 (heavy) and 1-20 (light); copies: 2 + 2
On to B3, for which the Kd in test [1] was below 1 pM; in test [2] it was below 1 pM; in test [3], 1.2 pM; in test [4] it was 1.2 pM. For the same molecule, the values for the koff in test [1], in test [2] and in test [4] were below 1e-07 s⁻¹, below 1e-07 s⁻¹ and 1.3e-07 s⁻¹, respectively. Moreover, the kon in test [1] came out at 356000 M⁻¹ s⁻¹; in test [2], 356000 M⁻¹ s⁻¹; in test [4], 100000 M⁻¹ s⁻¹.
